# Test results from paper doi:10.1101/2021.03.25.436948.
# Molecular target: Drosophila melanogaster GNPTAB homolog, luminal portion (residues 50-630) (Drosophila melanogaster)
# Assay: cryo-EM structure
substance,measurement,value
"Drosophila melanogaster GNPTAB homolog, luminal portion (residues 50-630) (domain or fragment)",stoichiometry N,2
